{"source": "patent US20240270846A1", "about": "(published 2024)", "data": [{"molecular_target": "T1, CD3 epsilon homodimer protein (UniProt P07766 23-126)", "T1 construct": "Construct of the homodimer is not described; also called CD3 (CD3 epsilon)", "T1 sequence (P07766 23-126)": "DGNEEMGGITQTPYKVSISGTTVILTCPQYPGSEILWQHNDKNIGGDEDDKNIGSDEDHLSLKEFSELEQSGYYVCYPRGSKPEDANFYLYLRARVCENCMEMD", "test": "SPR Biacore T200, CD3e homodimer on chip, antibody analyte;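 also: CD3 epsilon homodimer amine-coupled on CM4 sensor chip, antibodies injected as analyte at 25 °C in HBS-EP+, ratio ≥0.8 taken as binding retained versus unaltered parent antibody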", "values": [{"binder": "GLS3000 K50S one-arm antibody (antibody, human IgG1, kappa, L234A L235A, N297A, name in Kabat numbering) light: DIVMTQSPLSLPVTPGEPASISCRSSQSLVHSNRNTYLHWYQQKPGQAPRLLIYSVSNRFSGVPDRFSGSGSGTDFTLKISRVEAEDVGVYYCGQGTQVPYTFGQGTKLEIKRTVAAPSVFIFPPSDEQLKSGTASVVCLLNNFYPREAKVQWKVDNALQSGNSQESVTEQDSKDSTYSLSSTLTLSKADYEKHKVYACEVTHQGLSSPVTKSFNRGEC heavy: QVQLVESGGGVVQPGRSLRLSCAASGFTFSNAWMHWVRQAPGKGLEWVAQIKAKSNNYATYYAESVKGRFTISRDDSKNSLYLQMNSLKTEDTAVYYCRYVHYGAYYGVDAWGQGTTVTVSSASTKGPSVFPLAPSSKSTSGGTAALGCLVKDYFPEPVTVSWNSGALTSGVHTFPAVLQSSGLYSLSSVVTVPSSSLGTQTYICNVNHKPSNTKVDKKVEPKSCDKTHTCPPCPAPEAAGGPSVFLFPPKPKDTLMISRTPEVTCVVVDVSHEDPEVKFNWYVDGVEVHNAKTKPREEQYASTYRVVSVLTVLHQDWLNGKEYKCKVSNKALPAPIEKTISKAKGQPREPQVYTLPPSRCELTKNQVSLSCAVKGFYPSDIAVEWESNGQPENNYKTTPPVLDSDGSFFLVSKLTVDKSRWQQGNVFSCSVMHEALHNHYTQKSLSLSPDYKDDDDK EPKSSDKTHTCPPCPAPELLGGPSVFLFPPKPKDTLMISRTPEVTCVVVDVSHEDPEVKFNWYVDGVEVHNAKTKPREEQYNSTYRVVSVLTVLHQDWLNGKEYKCKVSNKALPAPIEKTISKAKGQPREPQVCTLPPSRDELTKNQVSLWCLVKGFYPSDIAVEWESNGQPENNYKTTPPVLDSDGSFFLYSKLTVDKSRWQQGNVFSCSVMHEALHNRYTQKSLSLSP", "ratio of amounts bound (altered form/GLS3000)": 0.23}, {"binder": "GLS3000 K50Y one-arm antibody (antibody, human IgG1, kappa, L234A L235A, N297A, name in Kabat numbering) light: DIVMTQSPLSLPVTPGEPASISCRSSQSLVHSNRNTYLHWYQQKPGQAPRLLIYYVSNRFSGVPDRFSGSGSGTDFTLKISRVEAEDVGVYYCGQGTQVPYTFGQGTKLEIKRTVAAPSVFIFPPSDEQLKSGTASVVCLLNNFYPREAKVQWKVDNALQSGNSQESVTEQDSKDSTYSLSSTLTLSKADYEKHKVYACEVTHQGLSSPVTKSFNRGEC heavy: QVQLVESGGGVVQPGRSLRLSCAASGFTFSNAWMHWVRQAPGKGLEWVAQIKAKSNNYATYYAESVKGRFTISRDDSKNSLYLQMNSLKTEDTAVYYCRYVHYGAYYGVDAWGQGTTVTVSSASTKGPSVFPLAPSSKSTSGGTAALGCLVKDYFPEPVTVSWNSGALTSGVHTFPAVLQSSGLYSLSSVVTVPSSSLGTQTYICNVNHKPSNTKVDKKVEPKSCDKTHTCPPCPAPEAAGGPSVFLFPPKPKDTLMISRTPEVTCVVVDVSHEDPEVKFNWYVDGVEVHNAKTKPREEQYASTYRVVSVLTVLHQDWLNGKEYKCKVSNKALPAPIEKTISKAKGQPREPQVYTLPPSRCELTKNQVSLSCAVKGFYPSDIAVEWESNGQPENNYKTTPPVLDSDGSFFLVSKLTVDKSRWQQGNVFSCSVMHEALHNHYTQKSLSLSPDYKDDDDK EPKSSDKTHTCPPCPAPELLGGPSVFLFPPKPKDTLMISRTPEVTCVVVDVSHEDPEVKFNWYVDGVEVHNAKTKPREEQYNSTYRVVSVLTVLHQDWLNGKEYKCKVSNKALPAPIEKTISKAKGQPREPQVCTLPPSRDELTKNQVSLWCLVKGFYPSDIAVEWESNGQPENNYKTTPPVLDSDGSFFLYSKLTVDKSRWQQGNVFSCSVMHEALHNRYTQKSLSLSP", "ratio of amounts bound (altered form/GLS3000)": 0.24}, {"binder": "GLS3000 L33E one-arm antibody (antibody, human IgG1, kappa, L234A L235A, N297A, name in Kabat numbering) light: DIVMTQSPLSLPVTPGEPASISCRSSQSLVHSNRNTYEHWYQQKPGQAPRLLIYKVSNRFSGVPDRFSGSGSGTDFTLKISRVEAEDVGVYYCGQGTQVPYTFGQGTKLEIKRTVAAPSVFIFPPSDEQLKSGTASVVCLLNNFYPREAKVQWKVDNALQSGNSQESVTEQDSKDSTYSLSSTLTLSKADYEKHKVYACEVTHQGLSSPVTKSFNRGEC heavy: QVQLVESGGGVVQPGRSLRLSCAASGFTFSNAWMHWVRQAPGKGLEWVAQIKAKSNNYATYYAESVKGRFTISRDDSKNSLYLQMNSLKTEDTAVYYCRYVHYGAYYGVDAWGQGTTVTVSSASTKGPSVFPLAPSSKSTSGGTAALGCLVKDYFPEPVTVSWNSGALTSGVHTFPAVLQSSGLYSLSSVVTVPSSSLGTQTYICNVNHKPSNTKVDKKVEPKSCDKTHTCPPCPAPEAAGGPSVFLFPPKPKDTLMISRTPEVTCVVVDVSHEDPEVKFNWYVDGVEVHNAKTKPREEQYASTYRVVSVLTVLHQDWLNGKEYKCKVSNKALPAPIEKTISKAKGQPREPQVYTLPPSRCELTKNQVSLSCAVKGFYPSDIAVEWESNGQPENNYKTTPPVLDSDGSFFLVSKLTVDKSRWQQGNVFSCSVMHEALHNHYTQKSLSLSPDYKDDDDK EPKSSDKTHTCPPCPAPELLGGPSVFLFPPKPKDTLMISRTPEVTCVVVDVSHEDPEVKFNWYVDGVEVHNAKTKPREEQYNSTYRVVSVLTVLHQDWLNGKEYKCKVSNKALPAPIEKTISKAKGQPREPQVCTLPPSRDELTKNQVSLWCLVKGFYPSDIAVEWESNGQPENNYKTTPPVLDSDGSFFLYSKLTVDKSRWQQGNVFSCSVMHEALHNRYTQKSLSLSP", "ratio of amounts bound (altered form/GLS3000)": 0.72}, {"binder": "GLS3000 K74T one-arm antibody (antibody, human IgG1, kappa, L234A L235A, N297A, name in Kabat numbering) light: DIVMTQSPLSLPVTPGEPASISCRSSQSLVHSNRNTYLHWYQQKPGQAPRLLIYKVSNRFSGVPDRFSGSGSGTDFTLTISRVEAEDVGVYYCGQGTQVPYTFGQGTKLEIKRTVAAPSVFIFPPSDEQLKSGTASVVCLLNNFYPREAKVQWKVDNALQSGNSQESVTEQDSKDSTYSLSSTLTLSKADYEKHKVYACEVTHQGLSSPVTKSFNRGEC heavy: QVQLVESGGGVVQPGRSLRLSCAASGFTFSNAWMHWVRQAPGKGLEWVAQIKAKSNNYATYYAESVKGRFTISRDDSKNSLYLQMNSLKTEDTAVYYCRYVHYGAYYGVDAWGQGTTVTVSSASTKGPSVFPLAPSSKSTSGGTAALGCLVKDYFPEPVTVSWNSGALTSGVHTFPAVLQSSGLYSLSSVVTVPSSSLGTQTYICNVNHKPSNTKVDKKVEPKSCDKTHTCPPCPAPEAAGGPSVFLFPPKPKDTLMISRTPEVTCVVVDVSHEDPEVKFNWYVDGVEVHNAKTKPREEQYASTYRVVSVLTVLHQDWLNGKEYKCKVSNKALPAPIEKTISKAKGQPREPQVYTLPPSRCELTKNQVSLSCAVKGFYPSDIAVEWESNGQPENNYKTTPPVLDSDGSFFLVSKLTVDKSRWQQGNVFSCSVMHEALHNHYTQKSLSLSPDYKDDDDK EPKSSDKTHTCPPCPAPELLGGPSVFLFPPKPKDTLMISRTPEVTCVVVDVSHEDPEVKFNWYVDGVEVHNAKTKPREEQYNSTYRVVSVLTVLHQDWLNGKEYKCKVSNKALPAPIEKTISKAKGQPREPQVCTLPPSRDELTKNQVSLWCLVKGFYPSDIAVEWESNGQPENNYKTTPPVLDSDGSFFLYSKLTVDKSRWQQGNVFSCSVMHEALHNRYTQKSLSLSP", "ratio of amounts bound (altered form/GLS3000)": 0.84}, {"binder": "GLS3000 K107E one-arm antibody (antibody, human IgG1, kappa, L234A L235A, N297A, name in Kabat numbering) light: DIVMTQSPLSLPVTPGEPASISCRSSQSLVHSNRNTYLHWYQQKPGQAPRLLIYKVSNRFSGVPDRFSGSGSGTDFTLKISRVEAEDVGVYYCGQGTQVPYTFGQGTKLEIERTVAAPSVFIFPPSDEQLKSGTASVVCLLNNFYPREAKVQWKVDNALQSGNSQESVTEQDSKDSTYSLSSTLTLSKADYEKHKVYACEVTHQGLSSPVTKSFNRGEC heavy: QVQLVESGGGVVQPGRSLRLSCAASGFTFSNAWMHWVRQAPGKGLEWVAQIKAKSNNYATYYAESVKGRFTISRDDSKNSLYLQMNSLKTEDTAVYYCRYVHYGAYYGVDAWGQGTTVTVSSASTKGPSVFPLAPSSKSTSGGTAALGCLVKDYFPEPVTVSWNSGALTSGVHTFPAVLQSSGLYSLSSVVTVPSSSLGTQTYICNVNHKPSNTKVDKKVEPKSCDKTHTCPPCPAPEAAGGPSVFLFPPKPKDTLMISRTPEVTCVVVDVSHEDPEVKFNWYVDGVEVHNAKTKPREEQYASTYRVVSVLTVLHQDWLNGKEYKCKVSNKALPAPIEKTISKAKGQPREPQVYTLPPSRCELTKNQVSLSCAVKGFYPSDIAVEWESNGQPENNYKTTPPVLDSDGSFFLVSKLTVDKSRWQQGNVFSCSVMHEALHNHYTQKSLSLSPDYKDDDDK EPKSSDKTHTCPPCPAPELLGGPSVFLFPPKPKDTLMISRTPEVTCVVVDVSHEDPEVKFNWYVDGVEVHNAKTKPREEQYNSTYRVVSVLTVLHQDWLNGKEYKCKVSNKALPAPIEKTISKAKGQPREPQVCTLPPSRDELTKNQVSLWCLVKGFYPSDIAVEWESNGQPENNYKTTPPVLDSDGSFFLYSKLTVDKSRWQQGNVFSCSVMHEALHNRYTQKSLSLSP", "ratio of amounts bound (altered form/GLS3000)": 0.94}, {"binder": "GLS3000 K50T one-arm antibody (antibody, human IgG1, kappa, L234A L235A, N297A, name in Kabat numbering) light: DIVMTQSPLSLPVTPGEPASISCRSSQSLVHSNRNTYLHWYQQKPGQAPRLLIYTVSNRFSGVPDRFSGSGSGTDFTLKISRVEAEDVGVYYCGQGTQVPYTFGQGTKLEIKRTVAAPSVFIFPPSDEQLKSGTASVVCLLNNFYPREAKVQWKVDNALQSGNSQESVTEQDSKDSTYSLSSTLTLSKADYEKHKVYACEVTHQGLSSPVTKSFNRGEC heavy: QVQLVESGGGVVQPGRSLRLSCAASGFTFSNAWMHWVRQAPGKGLEWVAQIKAKSNNYATYYAESVKGRFTISRDDSKNSLYLQMNSLKTEDTAVYYCRYVHYGAYYGVDAWGQGTTVTVSSASTKGPSVFPLAPSSKSTSGGTAALGCLVKDYFPEPVTVSWNSGALTSGVHTFPAVLQSSGLYSLSSVVTVPSSSLGTQTYICNVNHKPSNTKVDKKVEPKSCDKTHTCPPCPAPEAAGGPSVFLFPPKPKDTLMISRTPEVTCVVVDVSHEDPEVKFNWYVDGVEVHNAKTKPREEQYASTYRVVSVLTVLHQDWLNGKEYKCKVSNKALPAPIEKTISKAKGQPREPQVYTLPPSRCELTKNQVSLSCAVKGFYPSDIAVEWESNGQPENNYKTTPPVLDSDGSFFLVSKLTVDKSRWQQGNVFSCSVMHEALHNHYTQKSLSLSPDYKDDDDK EPKSSDKTHTCPPCPAPELLGGPSVFLFPPKPKDTLMISRTPEVTCVVVDVSHEDPEVKFNWYVDGVEVHNAKTKPREEQYNSTYRVVSVLTVLHQDWLNGKEYKCKVSNKALPAPIEKTISKAKGQPREPQVCTLPPSRDELTKNQVSLWCLVKGFYPSDIAVEWESNGQPENNYKTTPPVLDSDGSFFLYSKLTVDKSRWQQGNVFSCSVMHEALHNRYTQKSLSLSP", "ratio of amounts bound (altered form/GLS3000)": 0.19}]}]}
